Experiments:
[1] = target: CD3 (CD3/TCR complex) on CD4+ and CD8+ T cells of patients (human) (UniProt P07766); assay: flow cytometry of CD4+ T cells, anti-human IgG; Example 4 Cohort A, end of 0.1 mg infusion
[2] = target: CD3 (CD3/TCR complex) on CD4+ and CD8+ T cells of patients (human) (UniProt P07766); assay: flow cytometry of CD4+ T cells, anti-human IgG; Example 4 Cohort A, end of 0.2 mg infusion
[3] = target: CD3 (CD3/TCR complex) on CD4+ and CD8+ T cells of patients (human) (UniProt P07766); assay: flow cytometry of CD4+ T cells, anti-human IgG; Example 4 Cohort B, end of 0.2 mg infusion
[4] = target: CD3 (CD3/TCR complex) on CD4+ and CD8+ T cells of patients (human) (UniProt P07766); assay: flow cytometry of CD4+ T cells, anti-human IgG; Example 4 Cohort B, end of 0.3 mg infusion
[5] = target: CD3 (CD3/TCR complex) on CD4+ and CD8+ T cells of patients (human) (UniProt P07766); assay: flow cytometry of CD4+ T cells, anti-human IgG; Example 4 Cohort C, end of 0.3 mg infusion
[6] = target: CD3 (CD3/TCR complex) on CD4+ and CD8+ T cells of patients (human) (UniProt P07766); assay: flow cytometry of CD4+ T cells, anti-human IgG; Example 4 Cohort C, end of 1.0 mg infusion
[7] = target: CD3 (CD3/TCR complex) on CD4+ and CD8+ T cells of patients (human) (UniProt P07766); assay: flow cytometry of CD4+ T cells, anti-human IgG; Example 4 Cohort A*, end of 0.05 mg infusion
[8] = target: CD3 (CD3/TCR complex) on CD4+ and CD8+ T cells of patients (human) (UniProt P07766); assay: flow cytometry of CD4+ T cells, anti-human IgG; Example 4 Cohort A*, end of 0.15 mg infusion
[9] = target: CD3 (CD3/TCR complex) on CD4+ and CD8+ T cells of patients (human) (UniProt P07766); assay: flow cytometry of CD4+ T cells, anti-human IgG; Example 4 Cohort A*, end of 0.25 mg infusion
[10] = target: CD3 (CD3/TCR complex) on CD4+ and CD8+ T cells of patients (human) (UniProt P07766); assay: flow cytometry of CD4+ T cells, free CD3 sites by biotinylated TRX4; Example 4 Cohort B, Day 5
[11] = target: CD3 (CD3/TCR complex) on CD4+ and CD8+ T cells of patients (human) (UniProt P07766); assay: flow cytometry of CD4+ T cells, anti-human IgG; Example 3 Cohort 2 (0.5 mg x3), end of infusion
[12] = target: CD3 (CD3/TCR complex) on CD4+ and CD8+ T cells of patients (human) (UniProt P07766); assay: flow cytometry of CD4+ T cells, free CD3 sites by biotinylated TRX4; Example 4 Cohort A, 0.1 mg
[13] = target: CD3 (CD3/TCR complex) on CD4+ and CD8+ T cells of patients (human) (UniProt P07766); assay: flow cytometry of CD4+ T cells, free CD3 sites by biotinylated TRX4; Example 4 Cohort A, 0.3 mg
[14] = target: CD3 (CD3/TCR complex) on CD4+ and CD8+ T cells of patients (human) (UniProt P07766); assay: flow cytometry of CD4+ T cells, free CD3 sites by biotinylated TRX4; Example 4 Cohort C, 0.1 mg
[15] = target: CD3 (CD3/TCR complex) on CD4+ and CD8+ T cells of patients (human) (UniProt P07766); assay: flow cytometry of CD4+ T cells, free CD3 sites by biotinylated TRX4; Example 4 Cohort C, 0.3 mg
[16] = target: CD3 (CD3/TCR complex) on CD4+ and CD8+ T cells of patients (human) (UniProt P07766); assay: flow cytometry of CD4+ T cells, free CD3 sites by biotinylated TRX4; Example 4 Cohort A*, 0.15 mg
[17] = target: CD3 (CD3/TCR complex) on CD4+ and CD8+ T cells of patients (human) (UniProt P07766); assay: flow cytometry of CD4+ T cells, free CD3 sites by biotinylated TRX4; Example 4 Cohort A*, 0.25 mg
[18] = target: CD3 (CD3/TCR complex) on CD4+ and CD8+ T cells of patients (human) (UniProt P07766); assay: flow cytometry of CD4+ T cells, anti-human IgG; Example 4 Cohort A, 2 hours after 0.5 mg infusion
[19] = target: CD3 (CD3/TCR complex) on CD4+ and CD8+ T cells of patients (human) (UniProt P07766); assay: flow cytometry of CD4+ T cells, anti-human IgG; Example 4 Cohort B, 2 hours after 0.75 mg infusion
[20] = target: CD3 (CD3/TCR complex) on CD4+ and CD8+ T cells of patients (human) (UniProt P07766); assay: flow cytometry of CD4+ T cells, anti-human IgG; Example 4 Cohort C, about 24 hours after 1.0 mg infusion
[21] = target: CD3 (CD3/TCR complex) on CD4+ and CD8+ T cells of patients (human) (UniProt P07766); assay: flow cytometry of CD4+ T cells, anti-human IgG; Example 4 Cohort B, about 24 hours after 0.75 mg infusion
[22] = target: CD3 (CD3/TCR complex) on CD4+ and CD8+ T cells of patients (human) (UniProt P07766); assay: flow cytometry of CD4+ T cells, free CD3 sites by biotinylated TRX4; Example 4 Cohort A, day after last infusion
[23] = target: CD3 (CD3/TCR complex) on CD4+ and CD8+ T cells of patients (human) (UniProt P07766); assay: flow cytometry of CD4+ T cells, free CD3 sites by biotinylated TRX4; Example 4 Cohort B, 2 hours after last infusion
[24] = target: CD3 (CD3/TCR complex) on CD4+ and CD8+ T cells of patients (human) (UniProt P07766); assay: flow cytometry of CD4+ T cells, free CD3 sites by biotinylated TRX4; Example 3 Cohort 1, end of first 0.1 mg infusion
[25] = target: CD3 (CD3/TCR complex) on CD4+ and CD8+ T cells of patients (human) (UniProt P07766); assay: flow cytometry of CD4+ T cells, free CD3 sites by biotinylated TRX4; Example 3 Cohort 3, 2 hours after 0.5 mg infusion

Chain of UniProt P07766 (P07766 23-207, chain 1 of 3): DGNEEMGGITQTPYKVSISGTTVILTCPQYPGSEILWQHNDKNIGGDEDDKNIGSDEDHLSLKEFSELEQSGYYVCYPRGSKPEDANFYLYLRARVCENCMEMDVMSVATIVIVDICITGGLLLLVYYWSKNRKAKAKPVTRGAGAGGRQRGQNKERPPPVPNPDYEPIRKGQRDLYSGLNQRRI
Chain of UniProt P07766 (chain, as listed by the source, chain 2 of 3): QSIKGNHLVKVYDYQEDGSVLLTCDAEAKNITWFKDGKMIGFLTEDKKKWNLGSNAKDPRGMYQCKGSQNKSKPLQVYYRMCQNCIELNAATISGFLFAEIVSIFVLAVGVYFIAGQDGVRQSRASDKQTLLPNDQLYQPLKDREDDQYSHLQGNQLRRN
Chain of UniProt P07766 (chain, as listed by the source, chain 3 of 3): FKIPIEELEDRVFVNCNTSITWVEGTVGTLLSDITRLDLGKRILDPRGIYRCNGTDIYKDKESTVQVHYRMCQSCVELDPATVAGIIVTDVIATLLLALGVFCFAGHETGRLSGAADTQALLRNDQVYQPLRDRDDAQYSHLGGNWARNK

A cell-bound TRX4 (MESF of anti-human IgG) [1] of 200000 MESF units, a cell-bound TRX4 (MESF of anti-human IgG) [2] of 375000 MESF units and a cell-bound TRX4 (MESF of anti-human IgG) [3] of 400000 MESF were found for TRX4 antibody in this work. It also gave a cell-bound TRX4 (MESF of anti-human IgG) [4] of 420000 MESF units, a cell-bound TRX4 (MESF of anti-human IgG) [5] of 600000 MESF units and a cell-bound TRX4 (MESF of anti-human IgG) [6] of 750000 MESF units. It also gave a cell-bound TRX4 (MESF of anti-human IgG) [7] of 300000 MESF units, a cell-bound TRX4 (MESF of anti-human IgG) [8] of 800000 MESF units and a cell-bound TRX4 (MESF of anti-human IgG) [9] of 80000 MESF units. For the same substance, the percent saturation of CD3 [10] was 40%, the cell-bound TRX4 (MESF of anti-human IgG) [11] was 600000 MESF units and the percent saturation of CD3 [12] was 40%. It also gave a percent saturation of CD3 [13] of 85%, a percent saturation of CD3 [14] of 50% and a percent saturation of CD3 [15] of 99%. The percent saturation of CD3 [16] was 80%, the percent saturation of CD3 [17] was 95% and the cell-bound TRX4 (MESF of anti-human IgG) [18] was 400000 MESF units. For the same substance, the cell-bound TRX4 (MESF of anti-human IgG) [19] was 550000 MESF units, the cell-bound TRX4 (MESF of anti-human IgG) [20] was 200000 MESF units and the cell-bound TRX4 (MESF of anti-human IgG) [21] was 200000 MESF units. For the same substance, the percent saturation of CD3 [22] was 35%, the percent saturation of CD3 [23] was 70% and the percent saturation of CD3 [24] was 37%. The percent saturation of CD3 [25] was 45%.
